Data as given in IntAct's records for PubMed 16014621.

B1: Septum site-determining protein minD homolog, chloroplastic (Arabidopsis thaliana (Mouse-ear cress)), Q9MBA2 (parent)
chain: MASLRLFSTNHQSLLLPSSLSQKTLISSPRFVNNPSRRSPIRSVLQFNRKPELAGETPRIVVITSGKGGVGKTTTTANVGLSLARYGFSVVAIDADLGLRNLDLLLGLENRVNYTCVEVINGDCRLDQALVRDKRWSNFELLCISKPRSKLPMGFGGKALEWLVDALKTRPEGSPDFIIIDCPAGIDAGFITAITPANEAVLVTTPDITALRDADRVTGLLECDGIRDIKMIVNRVRTDMIKGEDMMSVLDVQEMLGLSLLGVIPEDSEVIRSTNRGFPLVLNKPPTLAGLAFEQAAWRLVEQDSMKAVMVEEEPKKRGFFSFFGG
partner: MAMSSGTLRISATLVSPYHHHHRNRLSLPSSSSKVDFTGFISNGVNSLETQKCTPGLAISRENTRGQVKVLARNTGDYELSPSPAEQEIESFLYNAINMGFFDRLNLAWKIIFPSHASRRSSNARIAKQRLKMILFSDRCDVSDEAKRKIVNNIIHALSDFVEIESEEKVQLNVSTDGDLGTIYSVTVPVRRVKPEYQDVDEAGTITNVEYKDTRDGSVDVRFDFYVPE

Variants of: B1
Conditions: with mine1_arath MINE1, Q9C4Z7

**Q.** MASLRLFSTNHQSLLLPSSLSQKTLISSPRFVNNPSRRSPIRSVLQFNRKPELAGETPRIVVITSGKGGVGATTTTANVGLSLARYGFSVVAIDADLGLRNLDLLLGLENRVNYTCVEVINGDCRLDQALVRDKRWSNFELLCISKPRSKLPMGFGGKALEWLVDALKTRPEGSPDFIIIDCPAGIDAGFITAITPANEAVLVTTPDITALRDADRVTGLLECDGIRDIKMIVNRVRTDMIKGEDMMSVLDVQEMLGLSLLGVIPEDSEVIRSTNRGFPLVLNKPPTLAGLAFEQAAWRLVEQDSMKAVMVEEEPKKRGFFSFFGG [K72A] was tested. Which “effect of a mutation on the interaction” value did it give?
**A.** The value was “decreasing interaction”.
